Measured values as given in the supplement of paper PMC9170038.

Test system: MS2 coat protein
Assay: apparent KD of MS2 coat protein; designed switch direction (-1 OFF switch, 1 ON switch): -1; higher = weaker reporter binding
How it was run: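 An oligonucleotide input, 200 uM small-molecule ligand, or no input was present during titration of SNAP-549-labelled MS2 coat protein, which was doubled from 0.7 or 1.5 nM to 3 µM. Designed RNA switches had been transcribed on Illumina chips by stalled E. coli RNA polymerase. Apparent KD per design is the median over clusters of curves fitted to normalised cluster fluorescence.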

[1] = Eterna round: R95, input ligand: microRNA oligo, concentration not stated
[2] = Eterna round: R95, input ligand: FMN 200 uM
[3] = Eterna round: R95, input ligand: none

Sequence | apparent KD of MS2 coat protein [1] | apparent KD of MS2 coat protein (input ligand: FMN 200 uM) | apparent KD of MS2 coat protein (input ligand: none) | apparent KD of MS2 coat protein [2] | apparent KD of MS2 coat protein [3]
GACUGUCUAGGAUAUGCGACGUUUUACAUGAGGAUCACCCAUGUUGUCUGCGUGUGUGUGGCAGAAGGAGACAAAC [Eses] (puzzle: Exclusion 5) | 13.3 nM | – | – | – | –
GACUUCUCUGAGGAUAUUGCAUCAUACGAUUUAUAAGAAGGCAGAACAUGAGGAUCACCCAUGUGGGUUUUUAG [Bingo-Bango-30] (Eterna round: R97, puzzle: Exclusion 6) | – | 102 nM | 55 nM | – | –
GAGAAACAUGAGGAUCACCCAUGUGAGGAUAUGAAAAAGAAAAGAAAAGAAAGAAGAAUCAGAAGGCACAAAGG [salish99-ex1_r3_078] (puzzle: Exclusion 1) | 30.8 nM | – | – | 45.3 nM | 39.1 nM
GAGAACGUAGGAUAUACAUGAGGAUCACCCAUGUGAGGAAGGAGUAGGAAGAGUGGAAGUAGAAGGACGGAGAG [JR_Exclu3_Sub072] (puzzle: Exclusion 3) | 21.9 nM | – | – | 47.4 nM | 34.9 nM
GAGGAACAUGAGGAUCACCCAUGUAAGGAUAUGCAAAGCGAGGUAGUAGAAGGAGAAGGCAGAAGGUACACGGA [JR_Exclu1_Sub075] (puzzle: Exclusion 1) | 29.6 nM | – | – | 31.9 nM | 45.3 nM
GAGGCUAAAGGAUAUACAUGAGGAUCACCCAUGUGGAGGAAGGUUAGAUGAGGAGAAGGUAGAAGGUUAGGCGG [JR_Exclu3_Sub094] (puzzle: Exclusion 3) | 31.1 nM | – | – | – | –
GAGUGACAUGAGGAUCACCCAUGUGAGGAUAUCGGACGGACCAAAUUAACAAUAAAUGCGAGAAGGCGCAUCGG [Exclusion 1 V16] (puzzle: Exclusion 1) | 43.3 nM | – | – | 46.7 nM | 54.3 nM
GAGUGACAUGAGGAUCACCCAUGUGAGGAUAUCGGACGGACCUUGUUAGCUUCCGCCGCGAGAAGGCACAUCGG [Exclusion 1 V25] (puzzle: Exclusion 1) | 94.3 nM | – | – | – | –
GAGUGACAUGAGGAUCACCCAUGUGAGGAUAUCGGCCGGACCUUGUUAGCUUCCGCCGCGAGAAGGCACAUCGG [Exclusion 1 V28] (puzzle: Exclusion 1) | 55.9 nM | – | – | – | –
GAGUGCUGAGGAUAUACAUGAGGAUCACCCAUGUGCUUCAGCUAGGAGACUAGCAUUCGUAGAAGGCAGUACUC [Mod of lroppy 22 - Jieux - Exclusion 3] (Eterna round: R97, puzzle: Exclusion 3) | – | 42.6 nM | 14.7 nM | – | –
GAGUGUUGAGGAUAUACAUGAGGAUCACCCAUGUGCUUCAGCUAGGAGACUAGCAUUGGUAGAAGGCAGUACUC [Mod of lroppy 9 - Jieux - Exclusion 3] (Eterna round: R97, puzzle: Exclusion 3) | – | 48.3 nM | 37.1 nM | – | –
GAGUUAGCGUGAGGAAUAUACAUGAGGAUCACCCAUGUUAGCUUAUAUAUUGCUCGUCUUAUAACAACAAUUAACUG [Mod JX-Electric-eye2] (Eterna round: R97, puzzle: Sensor, turn-off variant 1) | – | 25.4 nM | 27.2 nM | – | –
GAUAAAGGGCAGGAUAUGGCUGGAAAAUAUCCGCCAGAAGGGCCCACAUGAGGAUCACCCAUGUGUGGUCCGCG [Lere] (puzzle: Exclusion 6) | 17.3 nM | – | – | 52.3 nM | 19.1 nM
GAUAGAGAGCAGGAUAUCUUGGAUAAGUAUAGUAGAGAAGGGCUCACAUGAGGAUCACCCAUGUGGUCCUAGAU [JL Dibiri mod 11] (puzzle: Exclusion 6) | 14.9 nM | – | – | 43.8 nM | 15 nM
